2 molecules from article doi:10.1101/2022.12.01.518643 (bioRxiv, 2022) can be followed below.

In assay [1] the target is soluble DP4 (HLA-DPA1*01:03/DPB1*04:01) (human). Briefly: fluorescence polarisation. For orientation: Polarisation of emitted light reports the rotation of a fluorescent probe.
Assay [2] shares this target. Briefly: fluorescence polarisation. The source holds these as a separate data set.

In turn, “OC43 hemagglutinin esterase peptide 259–273 (P1)” displayed an IC50 in assay [1] of less than 1000 nM.

B1: SARS-CoV-2 homolog of the OC43 peptide P4 (peptide)
chain: RSFIEDLLFNKVTLA
modifications: not checked
In assay [2], B1 registered a fold change of binding against the OC43 peptide P4 of 10 fold.

By IC50 is commonly meant the point on the concentration scale where inhibition reaches its midpoint. A lower IC50 goes with higher potency.
